According to the supplement of paper PMC9170038:

Test system: MS2 coat protein
Test: apparent KD of MS2 coat protein; designed switch direction (-1 OFF switch, 1 ON switch): -1; higher = weaker reporter binding
Summary of the method: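 Transcription of designed RNA switches on Illumina chips was done by stalled E. coli RNA polymerase. SNAP-549-labelled MS2 coat protein was then titrated in doubling steps from 0.7 or 1.5 nM to 3 µM, with steps of 0.8–1.5 h at the lowest and 10–20 min at the highest concentration. The per-design median over clusters of curve-fitted normalised fluorescence is reported as apparent KD.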

[1] = Eterna round: R95, input ligand: FMN 200 uM
[2] = Eterna round: R95, input ligand: microRNA oligo, concentration not stated
[3] = Eterna round: R95, input ligand: none
[4] = input ligand: microRNA oligo, concentration not stated

Row | Sequence | apparent KD of MS2 coat protein [2] | apparent KD of MS2 coat protein (input ligand: FMN 200 uM) | apparent KD of MS2 coat protein (input ligand: none) | apparent KD of MS2 coat protein [4] | other results
1 | UUAUAUAGUGUGAGGAUAUGCUGGUCCUUGGAUCAGCAGAAGGCACAUGAGGAUCACCCAUGUAGUUAAAUAUA [Mat - Exclusion 4 - JL Mod - D18] (puzzle: Brourd's mod of Exclusion 4) | 31.1 nM | – | – | – | apparent KD of MS2 coat protein [1]: 252 nM; apparent KD of MS2 coat protein [3]: 39.5 nM
2 | UUAUAUAGUGUGAGGAUAUGCUGGUCCUUGGAUCAGCAGAAGGCACAUGAGGAUCACCCAUGUAGUUAAAUUUA [Mat - Exclusion 4 - JL Mod - D17] (puzzle: Brourd's mod of Exclusion 4) | 27.3 nM | – | – | – | –
3 | UUAUAUAGUGUGAGGAUAUGCUGGUCCUUGGAUCAGCAGAAGGCACAUGAGGAUCACCCAUGUAGUUUAUUUUU [Mat - Exclusion 4 - JL Mod - D4] (puzzle: Brourd's mod of Exclusion 4) | 25.9 nM | – | – | – | –
4 | UUAUCAUGCUUUAGAUCCUACAUGAGGAUCACCCAUGUGCUCGUCUUGUAUCGUUCUGUGUCGUAAGUCUCUGUUCG [mod Jandersonlee designer] (Eterna round: R97, puzzle: Sensor, turn-off variant 1) | – | 924 nM | 1390 nM | – | –
5 | UUAUGAGAGCAGGAUAUCUUAUAAGUGUAUUAAAGAGAAGGGCUCACAUGAGGAUCACCCAUGUGGUCCUAGAU [LRO-Excl6-17-mod of 4.86 by jal] (Eterna round: R97, puzzle: Exclusion 6) | – | 106 nM | 33.3 nM | – | –
6 | UUAUGAGAGCAGGAUAUCUUAUUUUUUUUUUGUGGAGAAGGGCUCACAUGAGGAUCACCCAUGUGGUCCUAGAU [LRO-Excl6-25-mod of 4.86 by jal] (Eterna round: R97, puzzle: Exclusion 6) | – | 47.4 nM | 32.9 nM | – | –
7 | UUAUUAAGUGUGAGGAUAUGCUGGUCCUUGGAUCAGCAGAAGGCACAUGAGGAUCACCCAUGUACAAUAUUUUA [Mat - Exclusion 4 - JL Mod - D29] (puzzle: Brourd's mod of Exclusion 4) | 35.8 nM | – | – | – | –
8 | UUAUUACAAGCAAGAUCCUACAUGAGGAUCACCCAUGUGCUCGUCUUGUAAGGUACAGUGACGAAAGUCACAGUACC [Sensor 3, v1 - 000] (puzzle: Sensor v3, turn-off variant 1) | 302 nM | – | – | – | apparent KD of MS2 coat protein [1]: 24.7 nM; apparent KD of MS2 coat protein [3]: 24.9 nM
9 | UUAUUAUAUGAAGGAUAUACUUAACAUGAGGAUCACCCAUGUGGUGUUGUGAGUGAGUGAGUUUAGUAGAAGGUCAAUGAUUUU [JMF's solution 72] (Eterna round: R96, puzzle: Exclusion NG 2) | – | 1490 nM | 428 nM | 186 nM | –
10 | UUAUUAUAUGUAGGAUAUGCAUAUUGUUGUUAUGCAGAAGGACAUGAGGAUCACCCAUGUAUAUUAUUGUUGUAUAUUAUAUAU [Title] (Eterna round: R96, puzzle: Exclusion NG 1) | – | 37.4 nM | 24.1 nM | 17.5 nM | –
11 | UUAUUGUGUGUAGGAUAUGCGUGUUAUUAUUAUGCAGAAGGACAUGAGGAUCACCCAUGUGUAUUAUUAUUAUAUAUUAUAUAU [Title] (Eterna round: R96, puzzle: Exclusion NG 1) | – | 45.3 nM | 27.7 nM | 27.2 nM | –
12 | UUCACAUGGACAUGAGAUCACAUGAGGAUCACCCAUGUGAAUAACAAGCUUUUUGUUCGUCUUAUGUCCAAUAAUAU [Stov1/14-D2] (Eterna round: R97, puzzle: Sensor, turn-off variant 1) | – | 13.7 nM | 10.5 nM | – | –
13 | UUCAUGUGAGGAUAUGUGAUCUGCUUUCUGUUUAGAUGAUCACAGAAGGCACAUGAGGAUCACCCAUGUAGAUC [Ex4 - 3 - 30] (puzzle: Exclusion 4) | 60.5 nM | – | – | – | –
14 | UUCCCACAUGAGGAUCACCCAUGUGAGGAUAUGGAGCGCGACCGCGCGGUCGCGUACACCAGAAGGCGCAUGAU [1st #80] (Eterna round: R97, puzzle: Exclusion 1) | – | 21 nM | 16.2 nM | – | –
15 | UUGAACAUAGGAUAUAGUUGUUUGUACAUGAGGAUCACCCAUGUUAGGGAUGUUUUGUUUCUAGAAGGAUGUUGAU [JR_E5_Sub001] (puzzle: Exclusion 5) | 128 nM | – | – | – | –
16 | UUGAAGUCAUCAGGAUAUAGUUUUAAUGUCAUGCUUAAGUUCUUACAUGAGGAUCACCCAUGUCGCUAGAAGGGAUUAUAGAUU [JR_ExcNG2_Sub078] (Eterna round: R96, puzzle: Exclusion NG 2) | – | 66.8 nM | 67.7 nM | 42.6 nM | –
17 | UUGAAUUAACAGGAUAUGGGAGUCGAUAGACACCCAGAAGGGUUAACAUGAGGAUCACCCAUGUGUCCUAUCAA [Mod of Eli 23 - Jieux - Exclusion 6] (Eterna round: R97, puzzle: Exclusion 6) | – | 94.8 nM | 36.5 nM | – | –
18 | UUGACGGCAGGAUAUACAUGAGGAUCACCCAUGUAAAUUUUUCGUUUAACUUGAAUGUGUAGAAGGGCCCAACC [Ex3 #78] (Eterna round: R97, puzzle: Exclusion 3) | – | 16.6 nM | 17.8 nM | – | –
19 | UUGGAGAGAGGAUAUCCCUAGUUUAACAUGAGGAUCACCCAUGUGCGCGUCAAGUCGAAAGGAGAAGGUUCGGCGA [Eternabot (L1) Solution 5] (Eterna round: R97, puzzle: Exclusion 5) | – | 32.7 nM | 26.8 nM | – | –
20 | UUGGAGAUAGGAUAUACGAGGAGAGUUGAGGGAAGGUGAUGACAUGAGGAUCACCCAUGUAGAAGGAUCAGGAG [JR_Exclu2_Sub069] (Eterna round: R96, puzzle: Exclusion 2) | – | 169 nM | 172 nM | 98.8 nM | –
21 | UUGGAGAUAGGAUAUACGAGGAGAGUUGAGGGAAGGUGAUGACAUGAGGAUCACCCAUGUAGAAGGAUCAGGAG [JR_Exclu2_Sub069] (puzzle: Exclusion 2) | 118 nM | – | – | – | –
22 | UUGUAACGAUUAGGAUAUUAUUAAUAGAACUUUAUGAUAUACAUGAGGAUCACCCAUGUUACUUUUAAGAAGGAAUCGUAUUAU [JR_ExcNG2_Sub091] (Eterna round: R96, puzzle: Exclusion NG 2) | – | – | – | 17 nM | –
23 | UUGUACCGGUGAGGAUAUUUUUAAUAGAGCUUUAUGAUAUACAUGAGGAUCACCCAUGUUACGUUAAAGAAGGCAUCGGAUUAU [JL JR Sub091 mod 4] (Eterna round: R96, puzzle: Exclusion NG 2) | – | 18.6 nM | 21.6 nM | 13.9 nM | –
24 | UUGUACCGGUGAGGAUAUUUUUGAUAGAACUUUAUGAUAUACAUGAGGAUCACCCAUGUUACUUUAAAGAAGGCAUCGGAUUAU [JL JR Sub091 mod 2] (Eterna round: R96, puzzle: Exclusion NG 2) | – | – | – | 14.3 nM | –
25 | UUGUCUAAUGUGAGGAUAUGCUGGUCCAUAGAUCAGCAGAAGGCACAUGAGGAUCACCCAUGUGAUAACACAAU (Eterna round: R97, puzzle: Brourd's mod of Exclusion 4) | – | 296 nM | 21.3 nM | – | –
26 | UUGUUAUAUGUAGGAUAUGCGUAUUAUUAUUAUGCAGAAGGACAUGAGGAUCACCCAUGUAUAUUAUUAUUAUAUAUUAUAUAU [Title] (Eterna round: R96, puzzle: Exclusion NG 1) | – | – | – | 21.9 nM | –
